{"source": "paper PMC3980048", "target": "HIV-1 clade C (CZA97.012) gp140 Env trimer (HIV-1 clade C, strain CZA97.012)", "assay": "SEC"}
{"substance": "HIV-1 clade C (CZA97.012) gp140 Env trimer (natural protein)", "values": [{"measurement": "stoichiometry N", "result": 3}]}
